Measurements reported in US20230049152A1 (Genentech, published 2023).

B1: hu.Ab2.H1L1 (antibody, human IgG1, kappa, V domains shown)
VH: EQQLVESGGGVVQPGRSLRLSCAASGFSFSYGYDMCWVRQAPGKGLEWIACISAGSSDNTWYASWAKGRFTISKDTSKTTVYLQMNSLRAEDTAVYFCSRYLGLWGPGTLVTVSS
VL: EQVLTQSPGTLSLSPGERATLSCQSSKSVNNNNLAWYQQKPGQPPRLLIYFASALASGVPDRFSGSGSGTDFTLTISRLEPEDFAVYYCQGAYSGGSDSYAFGGGTKVEIKR
notes: humanized rabbit anti-CCR8 antibody, human IgG1
B2: Afuc.hu.Ab4.H12L3 (antibody, human IgG1, kappa)
heavy: not shown
light: DYQMTQSPSSLSASVGDRVTITCQASQSISSYLSWYQQKPGKAPKLLIYKASTLASGVPSRFSGSGSGTDFTLTISSLQPEDFATYYCQQGYTSSNIDNIFGGGTKVEIKRTVAAPSVFIFPPSDEQLKSGTASVVCLLNNFYPREAKVQWKVDNALQSGNSQESVTEQDSKDSTYSLSSTLTLSKADYEKHKVYACEVTHQGLSSPVTKSFNRGEC
modifications: afucosylated Fc N-glycan at position Asn299; between about 80% to about 95% afucosylation
notes: also called Afuc.Ab4.H12L3; afucosylated hu.Ab4.H12L3
B3: Afuc.hu.Ab5.H13L1 (antibody, human IgG1, kappa)
heavy: not shown
light: DIQVTQSPSSLSASVGDRVTITCQASENIANALAWYQQKPGKPPKFLIYGASNLASGVPSRFSGSGSGTDFTFTISSLQPEDIATYYCQQAYYGNSFVEGTFGGGTKVEIKRTVAAPSVFIFPPSDEQLKSGTASVVCLLNNFYPREAKVQWKVDNALQSGNSQESVTEQDSKDSTYSLSSTLTLSKADYEKHKVYACEVTHQGLSSPVTKSFNRGEC
modifications: afucosylated Fc N-glycan at position Asn299; between about 80% to about 95% afucosylation
notes: also called Afuc.Ab5.H13L1; afucosylated hu.Ab5.H13L1

What was measured:
human CCR8 [1] = biological target: T1, human CCR8 (human, UniProt P51685 1-355); assay: flow cytometry, human colorectal cancer dissociated tumor cells, 2 ug/mL mAb, AF647 anti-human IgG; CCR8 read on Treg cells
T1 construct: the assay field says which; also called hCCR8; huCCR8
Method: The mAbs were evaluated for binding to regulatory T cells (Treg cells or Tregs) by Fluorescence-Activated Cell Sorting (FACS) flow cytometry. Human colorectal dissociated tumor cells (DTC) (Discovery Life Sciences) were thawed according to vendor's protocol. Cells were surface stained with eFluor 780-conjugated Fixable Viability Dye (ThermoFisher Scientific) and 2 ug/mL mAb specific for CCR8, OX40 (positive control), Herceptin (negative control), or anti-hIgG (negative control) for 20 min at 4° C. followed by secondary detection with AF647-conjugated AffiniPure F(ab′)2 Fragment Goat anti-Human IgG, Fcg fragment-specific (Jackson ImmunoResearch) for 10 min at 4° C. Cells were then intracellularly stained using the eBioscience Foxp3/Transcription Factor Staining Buffer Set (ThermoFisher Scientific) according to the manufacturer's protocol. […] Shown in FIG. 1 are mean fluorescent intensity (MFI) values for CD8 T cells (defined as CD45+CD14−CD3+CD8+CD4−) (circles, ◯), conventional CD4 T cells (defined as CD45+CD14−CD3+CD8−CD4+FOXP3−) (squares, □), and Treg cells (defined as CD45+CD14−CD3+CD8−CD4+FOXP3+) (triangles, ▴). Three of the five CCR8 mAb clones specifically stained Treg cells and not conventional CD4 or CD8 T cells and were ranked according to CCR8 MFI, greater than 500 MFI: hu.Ab4.H1L1>hu.Ab5.H1L1>hu.Ab3.H1L1. […]

human CCR8 [2] = biological target: T1, human CCR8; assay: cell-based or functional assay
human CCR8 [3] = biological target: T1, human CCR8; assay: cell-based or functional assay; remark: listed apart in the source
GST-FcgR3a.F158 [4] = biological target: T2, GST-FcgR3a.F158 (UniProt P08637 17-208, limits assumed); assay: ELISA, GST-FcgR3a captured by anti-GST antibody
T2 construct: Captured by anti-GST antibody on ELISA plate; also called FcgR3a.F158 protein; Fcgamma RIIIa F158; not shown: GST tag
Method: (§1) The binding of fucosylated and afucosylated variants of hu.Ab5.H13L1 and hu.Ab4.H12L3 to both FcgR3a proteins by ELISA was studied. Briefly, an anti-GST antibody was coated on Nunc Maxisorp plates. GST-FcgR3a.V158 and GST-FcgR3a.F158 were captured at 500 ng/mL. Plates were then washed and then serially diluted anti-CCR8 antibodies starting at 100 ug/mL were incubated on the plate for 1 hour at room temperature. Plates were washed and bound antibody was detected by a HRP-conjugated anti-human IgG secondary antibody. Absorbance at 450 nm was measured by a plate reader. The data were fitted using a 4-parameter logistic curve in Softmax Pro.

GST-FcgR3a.V158 [5] = biological target: T3, GST-FcgR3a.V158 (UniProt P08637 17-208, limits assumed); assay: ELISA, GST-FcgR3a captured by anti-GST antibody
T3 construct: Captured by anti-GST antibody on ELISA plate; also called FcgR3a.V158 protein; Fcgamma RIIIa V158; not shown: GST tag
Method: as §1

GST-FcgR3a.F158 [6] = biological target: T2, GST-FcgR3a.F158; assay: ELISA, GST-FcgR3a.F158 captured by anti-GST antibody
Method: as §1

GST-FcgR3a.V158 [7] = biological target: T3, GST-FcgR3a.V158; assay: ELISA, GST-FcgR3a.V158 captured by anti-GST antibody
Method: as §1

cyno CCR8 = biological target: T4, cyno CCR8 (cynomolgus monkey, UniProt O97665 1-356 (rhesus entry)); assay: whole-blood flow cytometry of cyno blood spiked ex vivo with a saturating concentration of the antibody, detected with labeled goat anti-human IgG on FoxP3+ T-reg cells; relative percentage of CCR8+ T-reg cells
T4 construct: also called cynomolgus monkey CCR8
Method: Blood was collected from each of the animals before dosing (“Pre-study”), as well as on Day 1 at 0 hours (“Pre-dose”). Each of the animals were then administered a single dose of 10 mg/kg afucosylated anti-gD (Control Group), Afuc.hu.Ab5.H13L1 (Group 2) or Afuc.hu.Ab4.H12L3 (Group 3) via intravenous injection. Blood was then collected from the animals and subjected to the following treatment prior to flow cytometry analysis: (i) blood sample not spiked with either test CCR8 mAb (“unspiked”), (ii) blood sample further spiked with a saturating concentration of Afuc.hu.Ab5.H13L1, and (iii) blood sample further spiked with a saturating concentration of Afuc.hu.Ab4.H12L3. Each of the unspiked and spiked samples were subsequently treated with a labeled goat anti-human IgG antibody and analyzed by flow cytometry. […] Furthermore, flow cytometry of spiked blood also had very little effect on the total CCR8+T-reg cell count.
Anti-CCR8 antibodies Afuc.hu.Ab5.H13L1, Afuc.hu.Ab4.H12L3, and the control anti-gD were used for this study.

T3 sequence (P08637 17-208 F176V limits assumed): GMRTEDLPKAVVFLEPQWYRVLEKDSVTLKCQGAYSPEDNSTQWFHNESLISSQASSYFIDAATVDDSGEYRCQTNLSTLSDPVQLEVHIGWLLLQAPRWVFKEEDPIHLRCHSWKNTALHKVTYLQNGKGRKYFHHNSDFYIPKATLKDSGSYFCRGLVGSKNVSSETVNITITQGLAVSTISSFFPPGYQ
T2 sequence (P08637 17-208 limits assumed): as the sequence (P08637 17-208 F176V limits assumed) above, with V160F counted along it
T4 sequence (O97665 other isoform, or with tags, fused parts or gaps): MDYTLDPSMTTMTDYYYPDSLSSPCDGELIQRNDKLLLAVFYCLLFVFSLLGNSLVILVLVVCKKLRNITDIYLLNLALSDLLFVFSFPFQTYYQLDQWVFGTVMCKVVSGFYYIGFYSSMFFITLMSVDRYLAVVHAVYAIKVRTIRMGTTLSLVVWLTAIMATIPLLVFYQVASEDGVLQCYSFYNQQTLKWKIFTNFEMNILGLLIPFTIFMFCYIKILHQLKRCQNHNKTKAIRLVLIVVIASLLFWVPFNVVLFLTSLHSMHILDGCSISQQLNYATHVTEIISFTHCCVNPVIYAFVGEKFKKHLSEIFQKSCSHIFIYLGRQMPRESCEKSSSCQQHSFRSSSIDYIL

Binder	binding result (human CCR8 [1])	ADCC EC50, NK-92 F158 cells (FIG. 11A) (human CCR8 [2]) [nM]	ADCC EC50, NK-92 F158 cells (FIG. 11C) (human CCR8 [2]) [nM]	ADCC EC50, NK-92 V158 cells (FIG. 11B) (human CCR8 [2]) [nM]	ADCP EC50, macrophages HR/FF (FIG. 14A) (human CCR8 [3]) [nM]	ADCP EC50, macrophages HR/FF (FIG. 14E) (human CCR8 [3]) [nM]	ADCP EC50, macrophages HR/VF (FIG. 14C) (human CCR8 [3]) [nM]	ADCP EC50, macrophages RR/FF (FIG. 14B) (human CCR8 [3]) [nM]	ADCP EC50, macrophages RR/VF (FIG. 14D) (human CCR8 [3]) [nM]	fold increase in binding potency versus fucosylated counterpart (GST-FcgR3a.F158 [4]) [fold]	fold increase in binding potency versus fucosylated counterpart (GST-FcgR3a.V158 [5]) [fold]	EC50 (GST-FcgR3a.F158 [6]) [µg/mL]	EC50 (GST-FcgR3a.V158 [7]) [µg/mL]	binding result (cyno CCR8)
B1	binds													
B2		0.006	0.006	0.011	0.025	0.035	0.017	0.12	0.079	~10	~10	0.08	0.033	binds
B3		0.0047	0.003	0.0073	0.017	0.022	0.01	0.2	0.5	~10	~10	0.101	0.035	binds
